In patent US20240294611A1 (University of Texas, published 2024):

Molecular target: SARS-CoV spike without stabilizing modifications on pseudovirus (SARS-CoV, UniProt P59594 14-1255)
Test: cell-based or functional assay

B1: 3A3 full-length antibody (mouse variable region-human IgG1 constant region chimera) (antibody, V domains shown)
VH: QVQLQQSGAELLKPGASVKLSCTASGFNIKDTYIHWLKQRPEQGLEWIGRIGPAIGNTIYAPKFQGKATITTDTSSNTAYLQLSSLTSEDTAVYYCARYYGSSYYYFDYWGQGTTLTVSS
VL: DIVMTQSAPSVPVTPGESVSISCRSSKSLLHSNGNTYLYWFLQRPGQSPQLLIYRMSNLASGVPDRFSGSGSGTAFTLRISRVEAEDVGVYYCMQYLEYPLTFGAGTKLELKR
For B1, the “Pseudovirus IC50” value was 188 nM.
